Assays:
[1] = molecular target: HLA-A*01:01; assay: IEDB peptide-MHC binding, purified MHC/direct/fluorescence; filed as Kd, often an IC50 or EC50 that approximates it; ≥ and ≤ were set here for values at or beyond the usual limits of such assays; conditions: source organism: Yersinia pestis
[2] = molecular target: HLA-A*69:01; assay: as above
[3] = molecular target: HLA-A*02:01; assay: IEDB peptide-MHC binding, purified MHC/competitive/fluorescence; ≥ and ≤ were set here for values at or beyond the usual limits of such assays
[4] = molecular target: HLA-A*30:01; assay: IEDB peptide-MHC binding, purified MHC/competitive/radioactivity; filed as Kd, often an IC50 or EC50 that approximates it; ≥ and ≤ were set here for values at or beyond the usual limits of such assays
[5] = molecular target: HLA-A*26:01; assay: as above
[6] = molecular target: HLA-A*02:01; assay: IEDB peptide-MHC binding, purified MHC/direct/fluorescence; filed as Kd, often an IC50 or EC50 that approximates it; ≥ and ≤ were set here for values at or beyond the usual limits of such assays
[7] = molecular target: HLA-A*26:01; assay: as above; conditions: source organism: Mycobacterium tuberculosis
[8] = molecular target: HLA-A*02:01; assay: IEDB peptide-MHC binding, purified MHC/competitive/fluorescence; filed as Kd, often an IC50 or EC50 that approximates it; ≥ and ≤ were set here for values at or beyond the usual limits of such assays
[9] = molecular target: HLA-A*30:02; assay: IEDB peptide-MHC binding, purified MHC/competitive/radioactivity; filed as Kd, often an IC50 or EC50 that approximates it; ≥ and ≤ were set here for values at or beyond the usual limits of such assays
[10] = molecular target: HLA-A*03:01; assay: IEDB peptide-MHC binding, purified MHC/direct/fluorescence; filed as Kd, often an IC50 or EC50 that approximates it; ≥ and ≤ were set here for values at or beyond the usual limits of such assays
[11] = molecular target: HLA-B*15:01; assay: as above
[12] = molecular target: HLA-B*07:02; assay: as above; conditions: source organism: Human immunodeficiency virus type 1 (STRAIN UGANDAN / ISOLATE U455)
[13] = molecular target: HLA-A*24:02; assay: IEDB peptide-MHC binding, purified MHC/competitive/radioactivity; filed as Kd, often an IC50 or EC50 that approximates it; ≥ and ≤ were set here for values at or beyond the usual limits of such assays; conditions: source organism: Dengue virus 3 Martinique/1243/1999
[14] = molecular target: HLA-B*58:01; assay: IEDB peptide-MHC binding, purified MHC/direct/fluorescence; filed as Kd, often an IC50 or EC50 that approximates it; ≥ and ≤ were set here for values at or beyond the usual limits of such assays
[15] = molecular target: HLA-B*27:05; assay: as above; conditions: source organism: SARS-CoV1
[16] = molecular target: HLA-A*11:01; assay: as above; conditions: source organism: SARS-CoV1
[17] = molecular target: HLA-A*03:01; assay: IEDB peptide-MHC binding, purified MHC/competitive/radioactivity; filed as Kd, often an IC50 or EC50 that approximates it; ≥ and ≤ were set here for values at or beyond the usual limits of such assays; conditions: source organism: Dengue virus 1 Brazil/97-11/1997
[18] = molecular target: HLA-B*40:01; assay: IEDB peptide-MHC binding, purified MHC/direct/fluorescence; filed as Kd, often an IC50 or EC50 that approximates it; ≥ and ≤ were set here for values at or beyond the usual limits of such assays; conditions: source organism: Mycobacterium tuberculosis
[19] = source organism: Zaire ebolavirus
[20] = source organism: Dengue virus 2 Jamaica/1409/1983
[21] = source organism: Dengue virus 3 Martinique/1243/1999
[22] = source organism: Mycobacterium tuberculosis variant bovis
[23] = source organism: Sudan ebolavirus
[24] = source organism: Yersinia pestis
[25] = source organism: Francisella tularensis subsp. holarctica LVS
[26] = source organism: Mammarenavirus guanaritoense
[27] = source organism: Dengue virus 1 Brazil/97-11/1997
[28] = source organism: Vaccinia virus WR
[29] = source organism: Vaccinia virus Copenhagen
[30] = source organism: Shigella boydii
[31] = source organism: Dengue virus 4 Philippines/H241/1956
[32] = source organism: Vaccinia virus
[33] = source organism: Bacillus anthracis
[34] = source organism: Human immunodeficiency virus 1

AINGFVLPK showed a Kd [1] of no less than 20 µM.
AMLHWSLIL gave a Kd ([2]; source organism: Yellow fever virus 17D) of no less than 20 µM.
In the case of AMVQVHSQG, the IC50 [3, 19] is reported as no less than 102 µM.
With DEAHFTDPAS the Kd [4, 20] was 13.9 µM.
For DTGEESASS, the IC50 [3, 19] was no less than 425 µM.
EIPLQWIASA gave a Kd [5, 21] of 2.62 µM.
Work on ELRGLLKDV yielded a Kd [2, 22] of 13 µM and a Kd [6, 22] of no less than 20 µM.
With ETLQRKYGGA the Kd [5, 20] was 0.311 µM.
With EVSARIAAL the Kd [7] was 0.0124 µM.
For EVSTAIAAL, the Kd [7] was 0.0122 µM.
Sequence FIDNPLPNQ has an IC50 [3, 23] of 28.1 µM.
For FIPENQRTV, the IC50 ([3]; source organism: Human alphaherpesvirus 1 strain 17) was 4.22 µM.
In the case of FLEQGGFKA, the Kd [2, 24] is reported as 1.99 µM and the Kd [6, 24] is reported as 0.0643 µM.
FLHEDTEKI was tested, and the Kd ([8]; source organism: unidentified) was 0.02 µM.
FLIDLAFLI showed a Kd ([6]; source organism: Camelpox virus M-96) of 0.003 µM.
FSTLDKITD was tested, and the IC50 ([3]; source organism: Variola virus) was 53.6 µM.
In the case of FSYGTLIID, the IC50 ([3]; source organism: Variola virus) is reported as no less than 283 µM.
FTLDADLGI was tested, and the Kd [2, 25] was 0.0022 µM and the Kd [6, 25] was 0.0082 µM.
FVTLITGNM was tested, and the Kd [5, 20] was 1.39 µM.
With GHHTNFESF the Kd [5, 26] was no less than 77.9 µM and the Kd [9, 26] was 3.83 µM.
GLGSFVARK was tested, and the Kd ([10]; source organism: Escherichia coli) was 0.209 µM.
Work on GLPPGTPAV yielded a Kd ([6]; source organism: Mycobacterium tuberculosis) of 0.0278 µM.
In the case of GRLITANPIV, the Kd [4, 27] is reported as no less than 57.1 µM.
With GSRVRNIIA the Kd [4, 28] was 0.00885 µM.
GVFPVSIPIT showed a Kd [4, 20] of 7.36 µM.
For HAVYSIVFV, the Kd [4, 28] was 0.591 µM.
Work on HIFYQLANV yielded a Kd [4, 28] of 0.0604 µM.
Work on HKIMASENS yielded an IC50 [3, 19] of no less than 253 µM.
Sequence HLSNSFFIK has a Kd [4, 28] of 0.0173 µM.
With HPDIVIYQY the Kd ([11]; source organism: Human immunodeficiency virus type 1 (STRAIN UGANDAN / ISOLATE U455)) was 1.51 µM and the Kd [12] was 13 µM.
With HVYDFEPYY the Kd [4, 28] was 0.0274 µM.
IIKSPYMFA gave a Kd [4, 29] of 0.00642 µM.
IPLGVIHNS showed an IC50 [3, 19] of no less than 185 µM.
ITEAELTGY was tested, and the Kd [5, 20] was 8.27 µM and the Kd [9, 20] was 0.00947 µM.
Sequence KAELEEGVY has a Kd [9, 21] of no less than 52.8 µM.
KHGEYAPFA was tested, and the IC50 [3, 19] was 28.3 µM.
For KHMIAGVFF, the Kd [13] was 0.837 µM.
KLPRWIFFA was tested, and the Kd [2, 30] was 0.951 µM and the Kd [6, 30] was 0.0015 µM.
KMKELSPRW showed a Kd ([14]; source organism: SARS-CoV1) of 0.42 µM, a Kd ([11]; source organism: SARS-CoV1) of 1.2 µM and a Kd ([10]; source organism: SARS-CoV1) of 5.75 µM. For the same sequence, the Kd [15] was 5.25 µM and the Kd [16] was no less than 30.2 µM.
Sequence KQKMGPIYA has a Kd [4, 28] of 0.0217 µM.
For KQSQSYLTK, the Kd [4, 28] was 0.158 µM.
KSLYSHQLV was tested, and the Kd [4, 28] was 0.0123 µM.
In the case of KVMFVIRFK, the Kd [4, 28] is reported as 0.000597 µM.
Work on KVSPPSLGK yielded a Kd [4, 28] of 0.00112 µM.
LARWSSFKK showed a Kd [4, 27] of 0.00679 µM and a Kd [17] of 0.171 µM.
LEYDGFADF gave a Kd [18] of 0.0424 µM.
For LFVVTLIPLC, the Kd [4, 31] was 0.414 µM.
LLSQYVDDA gave an IC50 [3, 32] of 23.3 µM.
With LLYKQLNFT the Kd [2, 33] was no less than 20.6 µM and the Kd [6, 33] was 1.18 µM.
Work on LSNGMLRFA yielded an IC50 [3, 32] of 5.56 µM.
In the case of MNAPDDLVL, the IC50 [3, 19] is reported as no less than 162 µM.
In the case of MTSLSAVSV, the Kd [4, 28] is reported as 0.887 µM.
Work on NANPDCKTI yielded a Kd [2, 34] of 7.64 µM and a Kd [14, 34] of 9.31 µM.
NASQHPQQV was tested, and the Kd ([2]; source organism: Salmonella enterica subsp. enterica serovar Typhimurium) was 0.571 µM.
With NLHYWTAQE the IC50 [3, 23] was no less than 189 µM.
In the case of NLWNGIVPT, the Kd [8, 29] is reported as 0.0002 µM.
NQDGLICGL showed an IC50 [3, 19] of 28.4 µM.
For NQRETTVVW, the Kd ([11]; source organism: Pseudomonas aeruginosa) was 0.133 µM.
QKATLTEGVY was tested, and the Kd [9, 31] was 0.0156 µM.
QLSDHPMVK showed a Kd ([10]; source organism: Vibrio parahaemolyticus) of 0.146 µM.
In the case of RFLTIPPTA, the Kd [4, 20] is reported as 0.0605 µM.
Sequence RIRQGKFIK has a Kd [4, 28] of 0.00479 µM.

Source: the Immune Epitope Database (IEDB)
